Reference: patent publication US20250161358A1 (UTC THERAPEUTICS SHANGHAI, published 2025)

T1: CD7-Fc recombinant protein (human, UniProt P09564 26-180)
T1 construct: also called CD7-Fc protein; human CD7-Fc
T1 sequence (looked up): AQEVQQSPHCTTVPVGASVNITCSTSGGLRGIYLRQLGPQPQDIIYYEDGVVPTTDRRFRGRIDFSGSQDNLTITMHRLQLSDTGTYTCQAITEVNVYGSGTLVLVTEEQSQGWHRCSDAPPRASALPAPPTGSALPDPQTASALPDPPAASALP


Target: T1, CD7-Fc recombinant protein
Experiment: flow cytometry, CAR-T cells stained with CD7-Fc protein

| Binder | binding result |
| --- | --- |
| anti-CD7 scFv-H6 antibody (scFv, V domains shown, Fully human scFv from the phage library) VH: not shown VL: QSALTQPPSASGSPGQSVTISCTGTSSDVGGYNYVSWYQQHPGKAPKLMIYEVRKRPSGVPDRFSGSKSGNTASLTVSGLQADDEADYYCSSYAGSNNLGFGGGTKLTVL | binds |
| anti-CD7 scFv-H4 antibody (scFv, V domains shown, Fully human scFv from the phage library) VH: QVQLVQSGGGLVQPGGSLRLSCAASGFTFSTYWMSWVRQAPGKGLEWVANINQDGTEKYYVDSVKGRFTISRDNAKNSLYLQMNSLRAEDTAVYYCAREPGIALDYWGQGTLVTVSS VL: QSVVTQPPSVSAAPGQKVTISCSGSSSNIGNNYVSWYQQLPGTAPKLLIYDNNKRPSGIPDRFSGSKSGTSATLGITGLQTGDEADYYCGTWDSSLSAGDWVFGGGTKLTVL | binds |
| anti-CD7 scFv-H5 antibody (scFv, V domains shown, Fully human scFv from the phage library) VH: QVQLVQSGAEVKKPGESLRISCKGSGYSFTSYWISWVRQMPGKGLEWMGRIDPSDSYTNYSPSFQGHVTISADKSISTAYLQWSSLKASDTAMYYCARHPVTNYYYYGMDVWGQGTTVTVSS VL: DIRLTQSPSTVSASIGDRVTITCRASQGISNWLTWYQQKPGKAPKLLIYSASTLQSGVPSRFSGSGSGTDFTLTISSLQPEDFATYYCQQANNLRTLTFGGGTKVDIK | binds |
| anti-CD7 scFv-H7 antibody (scFv, V domains shown, Fully human scFv from the phage library; also called anti-CD7 CAR-H7) VH: EVQLVESGGGLIQPGGSLRLSCAASGFTVSSNYMSWVRQAPGKGLEWVSVIYSGGSTYYADSVKGRFTISRDNSKNTLYLQMNSLRAEDTAVYYCATDYGELHDAFDIWGQGTTVTVSS VL: not shown | binds |
| anti-CD7 scFv-H8 antibody (scFv, V domains shown, Fully human scFv from the phage library) VH: QVQLQESGAGLLKPSETLSLTCAVYGGSISGYYWSWIRQPPGKGLEWIGEINHSGSTNYNPSLKSRVTISVDTSKNQFSLKLSSVTAADTAVYYCARGGGSSGYYLDYWGQGALVTVSS VL: QSVLTQPPSVSEAPRQRVTISCSGSSSNIGNNAVNWYQQLPGKAPKLLIYYDDLLPSGVSDRFSGSKSGTSASLTISGLQSEDGADYYCASWDDSLNGRVFGGGTKLTVL | binds |
| anti-CD7 scFv-H9 antibody (scFv, V domains shown, Fully human scFv from the phage library; also called anti-CD7 CAR-H9) VH: not shown VL: QSVLTQPPSASGAPGERVTISCSGSSSNIGSNYVYWYQQLPGTAPKLLIYNSNQRPSGVPDRFSGSKSGASASLAISGLRSEDEADYYCAAWDDSLSGPVFGGGTKVTVL | binds |
| anti-CD7 scFv-H10 antibody (scFv, V domains shown, Fully human scFv from the phage library; also called anti-CD7 CAR-H10) VH: QLQLQESGGGLVQPGGSLRLSCAASGFTFSSYAMSWVRQAPGKGLEWVSAISGSGGSTYYADSVKGRFTISRDNSKNTLYLQMNSLRAEDTAVYYCAKGYSGYPAVLDYWGQGTLVTVSS VL: QSALTQPASVSGSPGQSITISCTGTSSDVGGSKYVSWYQQHPGKAPKLMIYDVSYRPSGVSDRFSGSKSGNTASLTISGLQAEDEADYYCSSYTSNSNLPLFGGGTKVTVL | binds |
| anti-CD7 scFv-H12 antibody (scFv, V domains shown, Fully human scFv from the phage library) VH: not shown VL: QPVLTQPPSASGTPGQRVIISCSGSGSNIGSNTVTWYRQFPGAAPKTLIYNSKLRPSWVPDRFTASKSGTSASLAISGLQSEDEADYYCAAWDDSLNGVVFGGGTKLTVL | binds |

Target: T1, CD7-Fc recombinant protein
Experiment: flow cytometry, CAR-T cells stained with CD7-Fc protein (FIG. 4)

| Binder | binding result |
| --- | --- |
| anti-CD7 scFv-H13 antibody (scFv, V domains shown, Fully human scFv from the phage library) VH: QVQLVQSGAEVKKPGSSVKVSCKASGGTFSSYAISWVRQAPGQGLEWMGGIIPIFGTANYAQKFQGRVTITADESTSTAYMELSSLRSEDTAVYYCARDQGVVPAAEIPYYDFWSGPPFDPWGQGTLVTVSS VL: not shown | binds |
| anti-CD7 scFv-H15 antibody (scFv, V domains shown, Fully human scFv from the phage library) VH: EVQLVQSGAEVKKPGASVKVSCKVSGYTLTELSMHWVRQAPGKGLEWMGGFDPEDGETIYAQKFQGRVTMTEDTSTDTAYMELSSLRSEDTAVYYCATERASGSYEYYFDYWGQGTLVTVSS VL: AIQLTQSPSSVSASVGDRVTITCRASQGISSWLAWYQQKPGKAPKLLIYAASSLQSGVPSRFSGSGSGTDFTLTISSLQPEDFATYYCQQANSFPYTFGQGTKVEIK | binds |
| anti-CD7 scFv-H18 antibody (scFv, V domains shown, Fully human scFv from the phage library) VH: not shown VL: QSALTQPPSASGSPGQSVTISCTGTSSDVGGYTYVSWYQQHPGKAPKLMIYEVSKRPSGVPDRFSGSKSGNTASLTVSGLQAEDEADYYCSSYAGSNNVVFGGGTELTVL | binds |
